According to patent US20210077638A1 (Regeneron, published 2021):
Blank lines part the entries; values can stand above or below the binder they belong to.

Columns and labels:
[1] = target: T1, human MET on EBC-1, NCI-H441 and NCI-H358 cells (human, UniProt P08581 25-1390); assay: saturation radioligand binding (antibody binding capacity) assay with 89Zr-DFO-H4H14639D on EBC-1 cells, 4 C, 45 min, gamma counting; x axis is total antibody dosed, not free
T1 construct: whole, on cells; also called Met receptor; c-Met
Protocol: (§1) This wash process was repeated two more times, before resuspending cells in 200 μL of cold buffer (10% FBS in PBS, v/v). Of the 200 μL, 180 μL from each well was collected and dispensed into flip-cap tubes, representing the cell-bound antibody. […] A calibration curve was generated from the total antibody dosed samples using counts detected vs total antibody dosed per well, T, based on the dilution series starting from the initial antibody concentration (divided by five because of sampling). The calibration curve was used to convert the bound fraction counts (multiplied by […] because of sampling) to mass (or concentration) of bound antibody, B.
(§2) The radioligand internalization was also assayed at the highest dosed concentration at 4° C. for the 45 minutes. […] Activity of cell pellets, stripping supernatants, and wash supernatants were measured using a gamma counter. The fraction internalized, I, was calculated as the ratio of activity of the cell pellet over sum of the total activity of the cell pellet, stripping supernatant and wash supernatants.
(§3) Because there are multiple binding formats for H4H14639D, the data set was fit by the Hill-Langmuir equation (equation 3). The ABC was then calculated using equation 2. Non-specific binding was determined to be a negligible component for all runs was not considered as part of the analysis. […]

[2] = target: T1, human MET on EBC-1, NCI-H441 and …; assay: saturation radioligand binding (antibody binding capacity) assay with 89Zr-DFO-H4H14639D on NCI-H441 cells, 4 C, 45 min, gamma counting; x axis is total antibody dosed, not free
Protocol: as §1, §2, §3

[3] = target: MET ('target' in the SPR assay of Example 2; construct not stated) (UniProt P08581 25-932, limits assumed); assay: SPR, Biacore 8k
MET ('target' in the SPR assay of Example 2; construct not stated), sequence (P08581 25-932 limits assumed): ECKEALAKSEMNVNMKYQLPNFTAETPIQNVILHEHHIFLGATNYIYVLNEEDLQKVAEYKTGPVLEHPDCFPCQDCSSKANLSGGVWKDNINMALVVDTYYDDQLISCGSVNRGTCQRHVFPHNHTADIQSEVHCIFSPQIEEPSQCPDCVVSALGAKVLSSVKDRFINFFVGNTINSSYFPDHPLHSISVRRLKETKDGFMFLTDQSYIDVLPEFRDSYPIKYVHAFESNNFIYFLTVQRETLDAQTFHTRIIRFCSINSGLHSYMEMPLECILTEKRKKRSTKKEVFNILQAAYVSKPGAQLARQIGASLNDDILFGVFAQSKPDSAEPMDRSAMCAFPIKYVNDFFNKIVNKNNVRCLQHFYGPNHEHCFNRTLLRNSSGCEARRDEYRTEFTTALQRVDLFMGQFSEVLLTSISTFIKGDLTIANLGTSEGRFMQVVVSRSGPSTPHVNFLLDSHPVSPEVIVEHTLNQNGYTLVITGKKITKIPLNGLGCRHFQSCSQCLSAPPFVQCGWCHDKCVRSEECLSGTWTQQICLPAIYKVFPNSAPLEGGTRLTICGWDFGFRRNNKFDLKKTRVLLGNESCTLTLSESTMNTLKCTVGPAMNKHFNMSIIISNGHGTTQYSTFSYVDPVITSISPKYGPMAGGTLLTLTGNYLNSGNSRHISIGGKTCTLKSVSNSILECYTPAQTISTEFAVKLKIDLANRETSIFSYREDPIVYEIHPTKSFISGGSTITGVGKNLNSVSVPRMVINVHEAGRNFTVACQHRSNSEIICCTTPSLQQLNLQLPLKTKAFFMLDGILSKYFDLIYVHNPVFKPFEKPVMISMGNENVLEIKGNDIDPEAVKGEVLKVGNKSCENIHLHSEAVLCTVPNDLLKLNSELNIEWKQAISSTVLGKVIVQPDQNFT

T1 sequence (P08581 25-1390): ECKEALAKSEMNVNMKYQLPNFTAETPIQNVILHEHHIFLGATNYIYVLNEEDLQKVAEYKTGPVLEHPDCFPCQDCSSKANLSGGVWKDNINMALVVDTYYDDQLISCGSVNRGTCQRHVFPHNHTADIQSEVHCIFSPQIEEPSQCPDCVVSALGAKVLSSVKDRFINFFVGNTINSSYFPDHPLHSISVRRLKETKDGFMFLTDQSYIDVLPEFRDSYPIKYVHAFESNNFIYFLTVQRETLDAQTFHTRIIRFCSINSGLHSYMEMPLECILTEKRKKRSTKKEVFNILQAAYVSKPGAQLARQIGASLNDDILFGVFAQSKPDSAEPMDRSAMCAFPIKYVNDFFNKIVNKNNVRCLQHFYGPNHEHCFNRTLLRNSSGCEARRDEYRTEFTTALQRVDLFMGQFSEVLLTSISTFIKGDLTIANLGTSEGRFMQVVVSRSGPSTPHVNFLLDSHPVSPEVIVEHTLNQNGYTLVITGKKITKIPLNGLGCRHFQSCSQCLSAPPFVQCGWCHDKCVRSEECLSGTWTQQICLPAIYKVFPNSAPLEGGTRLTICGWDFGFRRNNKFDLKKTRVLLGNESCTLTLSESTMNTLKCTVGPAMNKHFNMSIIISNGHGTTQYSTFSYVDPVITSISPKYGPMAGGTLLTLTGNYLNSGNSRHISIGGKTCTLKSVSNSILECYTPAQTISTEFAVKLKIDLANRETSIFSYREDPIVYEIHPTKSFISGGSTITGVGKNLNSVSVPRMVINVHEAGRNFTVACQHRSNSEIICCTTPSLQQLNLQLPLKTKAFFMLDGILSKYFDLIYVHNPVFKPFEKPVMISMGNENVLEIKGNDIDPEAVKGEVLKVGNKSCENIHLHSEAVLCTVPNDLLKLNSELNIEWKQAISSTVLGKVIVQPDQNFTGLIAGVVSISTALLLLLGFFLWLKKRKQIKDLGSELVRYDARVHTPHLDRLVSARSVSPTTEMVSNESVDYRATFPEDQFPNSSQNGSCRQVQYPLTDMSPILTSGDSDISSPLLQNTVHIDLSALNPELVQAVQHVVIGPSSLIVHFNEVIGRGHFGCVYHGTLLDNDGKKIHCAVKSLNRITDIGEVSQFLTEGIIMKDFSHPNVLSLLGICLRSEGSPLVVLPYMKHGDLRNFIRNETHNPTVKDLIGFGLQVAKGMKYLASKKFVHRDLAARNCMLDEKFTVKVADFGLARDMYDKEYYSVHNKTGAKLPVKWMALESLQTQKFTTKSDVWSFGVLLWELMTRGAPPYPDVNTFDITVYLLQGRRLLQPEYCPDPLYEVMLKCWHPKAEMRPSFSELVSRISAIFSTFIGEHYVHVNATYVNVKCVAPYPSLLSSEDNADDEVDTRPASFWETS

EC50 (read off the curve) [1]: ~3 nM
EC50 (read off the curve) [2]: ~2 nM
B1: 89Zr-DFO-H4H14639D (bispecific antibody, V domains shown)
VH 1: EVQLVESGGGLVQPGTSLRLSCAASGFTFDDYAMHWVRQAPGKGLEWVSGITWNSYNIDYADSVKGRFTISRDNAKNSLYLQMNSLRAEDTALYYCAKDDDYSNYVYFDYWGQGTLVTVSS
VH 2: EVQLVESGGGLVQPGGSLRLSCAASGFIVTTNYMTWLRQAPGKGLEWVSLIYSSGHTYYADSVKGRFTISRHNSKNTLYLQMDSLRAEDTAVYYCASAFAADVFDIWGQGTMVTVSS
VL: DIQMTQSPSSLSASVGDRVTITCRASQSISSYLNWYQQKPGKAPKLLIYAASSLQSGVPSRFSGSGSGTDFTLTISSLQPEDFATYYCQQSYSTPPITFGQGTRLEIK
modifications: p-SCN-Bn-DFO on primary amines (sites not given), chelating 89Zr
notes: also called DFO-Ab radioimmunoconjugate; 89Zr-DFO-MET x MET bispecific antibody conjugate

KD relative to the KD of the unconjugated bispecific antibody [3]: ≤ 10%
B2: DFO-H4H14639D immunoconjugate (DAR 1.26) (bispecific antibody, V domains shown)
VH 1: B1 VH 1
VH 2: B1 VH 2
VL: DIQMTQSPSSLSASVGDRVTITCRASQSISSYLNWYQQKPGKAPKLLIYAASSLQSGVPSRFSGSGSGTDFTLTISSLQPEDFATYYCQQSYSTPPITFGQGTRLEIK
modifications: p-SCN-Bn-DFO on primary amines, sites not stated; average DAR 1.26 per antibody
notes: also called DFO-Ab immunoconjugate; DFO-MET x MET immunoconjugate
